The supplement of paper PMC9170038

Test system: MS2 coat protein
Experiment: apparent KD of MS2 coat protein; designed switch direction (-1 OFF switch, 1 ON switch): -1; higher = weaker reporter binding
Method in brief: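 SNAP-549-labelled MS2 coat protein was titrated, doubling from 0.7 or 1.5 nM to 3 µM, over designed RNA switches transcribed on Illumina chips by stalled E. coli RNA polymerase. Runs were done without input, with 200 uM small-molecule ligand, or with an oligonucleotide input. Apparent KD is the per-design median over clusters of curve-fitted normalised fluorescence.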

[1] = input ligand: microRNA oligo, concentration not stated
[2] = Eterna round: R95, input ligand: microRNA oligo, concentration not stated

| Sequence | apparent KD of MS2 coat protein (input ligand: FMN 200 uM) [nM] | apparent KD of MS2 coat protein (input ligand: none) [nM] | apparent KD of MS2 coat protein [1] [nM] | apparent KD of MS2 coat protein [2] [nM] | apparent KD of MS2 coat protein (Eterna round: R95, input ligand: FMN 200 uM) [nM] | apparent KD of MS2 coat protein (Eterna round: R95, input ligand: none) [nM] |
| --- | --- | --- | --- | --- | --- | --- |
| UCGUGUAUAGAGGAUAUAUUAUUUAUUUAAACAAUAGAAGGCUAAACAUGAGGAUCACCCAUGUAUUUGGUUUU [JR_Ex6_Sub052] (Eterna round: R97, puzzle: Exclusion 6) | 59.9 | 21.8 |  |  |  |  |
| CUGAGCUGAGGAUAUACAUGAGGAUCACCCAUGUUAAGCAGCUAGUGAAGAAGUAGAUGUAGAAGGCAGUUCGG [Mod of JL 21 - Jieux - Exclusion 3] (Eterna round: R97, puzzle: Exclusion 3) | 75.2 | 21 |  |  |  |  |
| AGCACUAUCACGAAAGUGAUAGUGCAAUAAGCAAGUGAAACAUGAGGAUCACCCAUGUCCUCAAUUGCUCGUCUUAU [Mat - Sensor v2 -ver2- JL mod - D81] (Eterna round: R96, puzzle: Sensor v2, turn-off variant 2) | 49.3 | 51.2 | 807 |  |  |  |
| CUUUUGGCAGGAUAUGCUUUUUUUGACAUGAGGAUCACCCAUGUGAUGCAUUUUGGGUUUGCAGAAGGGCCUGAGU [JR_E5_Sub036] (puzzle: Exclusion 5) |  |  |  | 56.9 |  |  |
| ACUUGUUGUCCUUGAUAUUACAUGAGGAUCACCCAUGUUAUUGUGAUUAUGAUGUGUAAGUUUGUUGCUCGUCUUAU [JR_STOV1_Sub065] (Eterna round: R97, puzzle: Sensor, turn-off variant 1) | 54.3 | 60.4 |  |  |  |  |
| UACCUGAGGCUUUGCUUUAGGCUUACAUGAGGAUCACCCAUGUAGGAUAUGGUAGGCAAAGCUUACCAGAAGGACAUGGAAAUU [Mat - Exclusion NG 3 - Mod of JL - D21] (Eterna round: R96, puzzle: Exclusion NG 3) |  |  | 13.2 |  |  |  |
| GCACAGGCAGGAUAUACAUGAGGAUCACCCAUGUGACCCUUGAUGUACUCGCGUACACGUAGAAGGGCCUGUGC [Omei Ex3 Model Bachelor's Dilema v41] (Eterna round: R97, puzzle: Exclusion 3) | 633 | 407 |  |  |  |  |
| CGGCGGGCAGGAUAUGGUAAUAAUUACAUGAGGAUCACCCAUGUAGAUAUAUGGGAAUAACCAGAAGGGCUUGUUG [-20.5, -20.3 kcal, A 32%] (Eterna round: R97, puzzle: Exclusion 5) | 19.7 | 28.7 |  |  |  |  |
| GGGAGAGAGUGAGGAUAUCAAAGAACAUGAGGAUCACCCAUGUAACCUCAUGUAAGAAGAAGAAGUGAGAAGGCACAGGAGGGU [Default title] (Eterna round: R96, puzzle: Exclusion NG 2) | 463 | 628 | 256 |  |  |  |
| GGACUAGGAGGAUAUACAUGAGGAUCACCCAUGUGUUGAUAAAGUCUACACAAUGUUAGUAGAAGGCUUAGACC [Eternabot (L2) Solution 18] (Eterna round: R97, puzzle: Exclusion 3) | 22.5 | 17.5 |  |  |  |  |
| GGUAGGUGUGACUUGGGUGACAUGAGGAUCACCCAUGUCACAAGCUUGUUGCUCGCCUUGUAAUUAACCCAUGUCAC [LRO Sensor-off var1-29 mod of Stov1-13-A1 by Brourd] (Eterna round: R97, puzzle: Sensor, turn-off variant 1) | 21.5 | 21.5 |  |  |  |  |
| AGUACUGACACGUCGGUGUUAGUACAAUAAGCUUGUGAAACAUGAGGAUCACCCAUGUCCUCAUAAGCUCGUCUUAU [salish99_TOv2_r3_081] (puzzle: Sensor v3, turn-off variant 2) |  |  |  | 659 | 17 | 15 |
| GGAUCUUGGGUCAGGAUAUGCUGAUAGUUAUGUCAGCAGAAGGGACAUGAGGAUCACCCAUGUGCUUGGUUUUG [Magic-17] (Eterna round: R96, puzzle: Brourd's mod of Exclusion 4) | 40.9 | 17.2 | 12.7 |  |  |  |
